From paper PMC4989506

Key:
[1] = target: recombinant albicin (Anopheles albimanus complement inhibitor) (Anopheles albimanus); test: SPR
C3b (human) = C3b (human) (UniProt P01024); test: SPR

Sequence of properdin (P27918 28-469): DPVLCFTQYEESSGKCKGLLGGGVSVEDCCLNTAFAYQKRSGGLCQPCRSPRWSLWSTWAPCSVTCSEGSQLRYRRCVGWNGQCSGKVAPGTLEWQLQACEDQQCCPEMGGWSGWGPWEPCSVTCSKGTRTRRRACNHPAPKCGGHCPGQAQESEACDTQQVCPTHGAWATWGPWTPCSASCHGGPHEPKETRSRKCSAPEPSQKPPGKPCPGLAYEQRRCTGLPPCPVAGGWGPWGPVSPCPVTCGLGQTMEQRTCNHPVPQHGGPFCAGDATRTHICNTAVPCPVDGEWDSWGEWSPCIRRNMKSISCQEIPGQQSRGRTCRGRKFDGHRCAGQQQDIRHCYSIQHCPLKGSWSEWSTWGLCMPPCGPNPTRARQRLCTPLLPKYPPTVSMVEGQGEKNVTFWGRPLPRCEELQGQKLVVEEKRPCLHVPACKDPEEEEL
Sequence of recombinant albicin (Anopheles albimanus complement inhibitor) (Anopheles albimanus) (A0A1Y9G8D0 27-142, tags left off): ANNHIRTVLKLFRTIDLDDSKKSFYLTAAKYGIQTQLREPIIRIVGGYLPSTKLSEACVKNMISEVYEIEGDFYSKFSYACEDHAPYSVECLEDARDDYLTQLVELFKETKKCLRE

For “properdin (from UniProt P27918 28-469) (natural protein)”, the K1/2 (concentration at half-saturation) [1] was 11.6 nM and the response of properdin coated on the C3b surface (C3b (human)) was 1200 RU.
